B1: DsrC from Allochromatium vinosum, wild type [Allochromatium vinosum] / DsrEFH from Allochromatium vinosum (DsrE2F2H2 heterohexamer), wild type [Allochromatium vinosum] (parent complex)
chain 1: MADTIEVDGKQFAVDEEGYLSNLNDWVPGVADVMAKQDNLELTEEHWDIINFLREYYEEYQIAPAVRVLTKAVGKKLGKEKGNSKYLYSLFPYGPAKQACRFAGLPKPTGCV
chain 2: MKFALQINEGPYQHQASDSAYQFAKAALEKGHEIFRVFFYHDGVNNSTRLTTPPQDDRHIVNRWAELAEQYELDMVVCVAAAQRRGIVDEGEASRNGKDATNIHPKFRISGLGQLVEAAIQADRLVVFGD
chain 3: MSEVVKKFMYLNRKAPYGTIYAWEALEVVLIGAAFDQDVCVLFLDDGVYQLTRGQDTKGIGMKNFSPTYRTLGDYEVRRIYVDRDSLEARGLTQDDLVEIAFEDMETEEEFDNIVEVIDSARVSELMNESDAVFSF
chain 4: MSILHTVNKSPFERNSLESCLKFATEGASVLLFEDGIYAALAGTRVESQVTEALGKLKLYVLGPDLKARGFSDERVIPGISVVDYAGFVDLTTECDTVQAWL

Variants of: B1
Assay: SPR; DsrEFH immobilized; reduced analyte, 80 nM; parent: 35; read off a plot

response [RU]	Variant
~2.8	chain 1 C100S, chain 1 C111S
~3	chain 1 C111S
~31	chain 1 C100S

Source: paper PMC3397948, “Cytoplasmic Sulfurtransferases in the Purple Sulfur Bacterium Allochromatium vinosum: Evidence for Sulfur Transfer from DsrEFH to DsrC” (PLoS ONE, 2012)
